The values below come from patent US20200140532A1.

For assay [1], the target named is recombinant cynomolgus Aggrecan G1-IGD-G2 (cynomolgus). Description: periplasmic extract ELISA. (ELISA stands for enzyme-linked immunosorbent assay.)
For assay [2] the target is unchanged. Briefly: ELISA on recombinant G1-IGD-G2.
For assay [3] the target is unchanged. Description: SPR (ProteOn), off-rate only indicative.

B1: C0101PMP102G11 (VHH, not shown: large carriers)
VHH: EVQLVESGGGLVQAGGSLRLSCAASGRSFSSYAMGWFRQAPGKEREFVSIISWSGGSTVYADSVKGRFTISRDNAKNTVYLQMNSLKPEDTAIYYCAAGRLYRATPRPADFGSWGQGTQVTVSS
Turning to B1, the OD 450 nm in assay [1] worked out at 0.6 OD 450 nm.

B2: C01010046 (601E08-ALB26) (VHH, not shown: small tags and cut ends)
VHH: DVQLVESGGGLVQPGGSLRLSCTASGRTFSSYAVGWFRQAPGKEREFVAAISRSGRSTYYADSVKGRFTISRDNSKNTVYLQMNSLRPEDTAVYYCAAGLSYYSPHAYYDYWGQGTLVTVSS
Usually EC50 stands for the concentration needed to bring the measured effect to its halfway point. By koff is commonly meant the first-order rate constant of dissociation. For the molecule B2, the EC50 in assay [2] worked out at 6.8 nM. Further, in assay [3], the dissociation rate constant (koff) was 0.0031 s⁻¹.

B3: C0101PMP601E08 (VHH, not shown: large carriers)
VHH: DVQLVESGGGLVQPGGSLRLSCTASGRTFSSYAVGWFRQAPGKEREFVAAISRSGRSTYYADSVKGRFTISRDNSKNTVYLQMNSLRPEDTAVYYCAAGLSYYSPHAYYDYWGQGTLVTVSS
As for B3, the OD 450 nm in assay [1] was determined as 1.32 OD 450 nm.

B4: C01010094 (604F02-ALB26) (VHH, not shown: small tags and cut ends)
VHH: DVQLVESGGGLVQPGGSLRLSCAASGRTFSSYTMGWFRQAPGKEREFVAAISWSGGRTYYADSVKGRFTISRDNSKNTVYLQMNSLRPEDTAVYYCAAYRRRRASSNRGLWDYWGQGTLVTVSS
With B4, the concentration for a half-maximal effect (EC50) in assay [2] came out at 2.2 nM. Further, the koff in assay [3] is 0.15 s⁻¹.

B5: C01010106 (ALB26-604F02-604F02) (VHH, not shown: large carriers; small tags and cut ends)
VHH 1: DVQLVESGGGLVQPGGSLRLSCAASGRTFSSYTMGWFRQAPGKEREFVAAISWSGGRTYYADSVKGRFTISRDNSKNTVYLQMNSLRPEDTAVYYCAAYRRRRASSNRGLWDYWGQGTLVTVSS
VHH 2: DVQLVESGGGLVQPGGSLRLSCAASGRTFSSYTMGWFRQAPGKEREFVAAISWSGGRTYYADSVKGRFTISRDNSKNTVYLQMNSLRPEDTAVYYCAAYRRRRASSNRGLWDYWGQGTLVTVSS
Turning to B5, the EC50 in assay [2] came to 0.068 nM.

B6: C0101PMP604F02 (VHH, not shown: large carriers)
VHH: DVQLVESGGGLVQPGGSLRLSCAASGRTFSSYTMGWFRQAPGKEREFVAAISWSGGRTYYADSVKGRFTISRDNSKNTVYLQMNSLRPEDTAVYYCAAYRRRRASSNRGLWDYWGQGTLVTVSS
Take B6: the OD 450 nm in assay [1] worked out at 1.37 OD 450 nm.

B7: C0101PMP604G09 (VHH, not shown: large carriers)
VHH: DVQLVESGGGLVQPGGSLRLSCVASGRTFSSYAMGWFRQAPGKEREFVAAITWSSATTYYADSVKGRFTISRDNSKNTVYLQMNSLRPEDTAVYYCAAARIPVGRRSENWDYWGQGTLVTVSS
Turning to B7, the OD 450 nm in assay [1] was 1.57 OD 450 nm.

B8: C0101PMP606A05 (VHH, not shown: large carriers)
VHH: DVQLVESGGGLVQPGGSLRLSCVASGRTFSIYTMGWFRQAPGKEREFVAAISWSGGRTYYADSVKGRFTISRDNSKNTVYLQMNSLRPEDTAVYYCTAYTGRSYGSYDYWGQGTLVTVSS
For the molecule B8, the OD 450 nm in assay [1] stood at 1.24 OD 450 nm.

B9: C01010054 (114F08-ALB26) (VHH, not shown: small tags and cut ends)
VHH: EVQLVESGGGLVQAGGSLRLSCAASGSTFIINVVRWYRRTPGKQRELVATISSGGNANYVDSVRGRFSISRDGAKNAVDLQMNGLKPEDTAVYYCNVPTTHYGGVYYGPYWGQGTQVTVSS
With B9, the half-maximal effective concentration (EC50) in assay [2] stood at 4.4 nM. For the same molecule, the koff in assay [3] stood at 0.0069 s⁻¹.

B10: C01010118 (ALB26-114F08-114F08) (VHH, not shown: small tags and cut ends)
VHH 1: EVQLVESGGGLVQAGGSLRLSCAASGSTFIINVVRWYRRTPGKQRELVATISSGGNANYVDSVRGRFSISRDGAKNAVDLQMNGLKPEDTAVYYCNVPTTHYGGVYYGPYWGQGTQVTVSS
VHH 2: EVQLVESGGGLVQAGGSLRLSCAASGSTFIINVVRWYRRTPGKQRELVATISSGGNANYVDSVRGRFSISRDGAKNAVDLQMNGLKPEDTAVYYCNVPTTHYGGVYYGPYWGQGTQVTVSS
As to B10, in assay [2], the EC50 was 0.076 nM.

B11: C0101PMP114F08 (VHH, not shown: large carriers)
VHH: EVQLVESGGGLVQAGGSLRLSCAASGSTFIINVVRWYRRTPGKQRELVATISSGGNANYVDSVRGRFSISRDGAKNAVDLQMNGLKPEDTAVYYCNVPTTHYGGVYYGPYWGQGTQVTVSS
As for B11, the OD 450 nm in assay [1] was 2.32 OD 450 nm.

B12: C0101PMP117D05 (VHH, not shown: large carriers)
VHH: KVQLVESGGGLVQAGGSLRLSCAASRRTFNMMGWFRQAPGKEREFVAYITWNGGDTRYAESVKGRFTVSRDDVKNTMALQMNRLDPLDTAVYYCGVRIHGSNWSTKADDYDNWGQGTQVTVSS
With B12, the OD 450 nm in assay [1] is 2.12 OD 450 nm.

B13: C0101PMP609C09 (VHH, not shown: large carriers)
VHH: DVQLVESGGGLVQPGGSLRLSCAASGTIFSINVMGWYRQAPGKEREFVAAITTGGRTNYADSVKGRFTISRDNSKNTVYLQMNSLRPEDTAVYYCNAEVTTGWVGYSWYDYWGQGTMVTVSS
For B13, the OD 450 nm in assay [1] came to 1.83 OD 450 nm.

B14: C0101PMP604B05 (VHH, not shown: large carriers)
VHH: DVQLVESGGGLVQPGGSLRLSCVASGRTFSIYTMAWFRQAPGKEREFVAAISWSSGRTYYADSVKGRFTISRDNSKNTVYLQMNSLRPEDTAVYYCTAYTGPRSGYDYWGQGTLVTVSS
For B14, the OD 450 nm in assay [1] amounted to 2.04 OD 450 nm.

B15: C0101PMP115B08 (VHH, not shown: large carriers)
VHH: KVQLVESGGGLVQPGGSLRLSCAASGFTFSMYAMKWVRQAPGKGLEWVSGINSSGGRTNYAGSVKGRFTISRDNAKNTLYLQMNSLKPEDTAVYYCATDFLGGRNSRGQGTQVTVSS
Consider B15, for which the OD 450 nm in assay [1] came out at 1.18 OD 450 nm.

B16: C0101PMP117G09 (VHH, not shown: large carriers)
VHH: EVQLVESGGGSALPGGSLRLSCAASGITFSSRYMRWYRQAPGRQRELVAAISSGGRTDYVDSVRGRFTLSINNAKNTVYLQMNDLKPEDTAVYYCYRPRMYVDGTYEKELWGQGTLVTVSS
Turning to B16, in assay [1], the OD 450 nm is 2.21 OD 450 nm.

B17: C01010060 (606A07-ALB26) (VHH, not shown: small tags and cut ends)
VHH: DVQLVESGGGLVQPGGSLRLSCVASGRTFSIYGMGWFRQAPGKEREFVAAINGGSRTYYADSVKGRFTISRDNSKNTVYLQMNSLRPEDTAVYYCAADRSGYGTSLDWWYDYWGQGTLVTVSS
On to B17, for which, in assay [2], the concentration giving a half-maximal response (EC50) was 5.4 nM. For the same molecule, the dissociation rate constant (koff) in assay [3] is 0.02 s⁻¹.

B18: C0101PMP606A07 (VHH, not shown: large carriers)
VHH: DVQLVESGGGLVQPGGSLRLSCVASGRTFSIYGMGWFRQAPGKEREFVAAINGGSRTYYADSVKGRFTISRDNSKNTVYLQMNSLRPEDTAVYYCAADRSGYGTSLDWWYDYWGQGTLVTVSS
With B18, the OD 450 nm in assay [1] amounted to 2.41 OD 450 nm.

B19: C01010113 (ALB26-606A07-606A07) (VHH, not shown: small tags and cut ends)
VHH 1: DVQLVESGGGLVQPGGSLRLSCVASGRTFSIYGMGWFRQAPGKEREFVAAINGGSRTYYADSVKGRFTISRDNSKNTVYLQMNSLRPEDTAVYYCAADRSGYGTSLDWWYDYWGQGTLVTVSS
VHH 2: DVQLVESGGGLVQPGGSLRLSCVASGRTFSIYGMGWFRQAPGKEREFVAAINGGSRTYYADSVKGRFTISRDNSKNTVYLQMNSLRPEDTAVYYCAADRSGYGTSLDWWYDYWGQGTLVTVSS
B19: the 50% effective concentration (EC50) in assay [2] turned out to be 0.3 nM.

B20: C01010097 (608A05-ALB26) (VHH, not shown: small tags and cut ends)
VHH: DVQLVESGGGLVQPGGSLRLSCAASGRTFSTYTMGWFRQAPGKEREFVAAISWSGGTTYYADSVKGRFTISRDNSKNTVYLQMNSLRPEDTAVYYCAARPRYYYYSLYSYDYWGQGTLVTVSS
For B20, the 50% effective concentration (EC50) in assay [2] was 0.21 nM. For the same molecule, the off-rate constant (koff) in assay [3] came out at 0.0018 s⁻¹.

B21: C01010109 (ALB26-608A05-608A05) (VHH, not shown: small tags and cut ends)
VHH 1: DVQLVESGGGLVQPGGSLRLSCAASGRTFSTYTMGWFRQAPGKEREFVAAISWSGGTTYYADSVKGRFTISRDNSKNTVYLQMNSLRPEDTAVYYCAARPRYYYYSLYSYDYWGQGTLVTVSS
VHH 2: DVQLVESGGGLVQPGGSLRLSCAASGRTFSTYTMGWFRQAPGKEREFVAAISWSGGTTYYADSVKGRFTISRDNSKNTVYLQMNSLRPEDTAVYYCAARPRYYYYSLYSYDYWGQGTLVTVSS
On to B21, for which the concentration for a half-maximal effect (EC50) in assay [2] was determined as 0.091 nM.

B22: C0101PMP608A05 (VHH, not shown: large carriers)
VHH: DVQLVESGGGLVQPGGSLRLSCAASGRTFSTYTMGWFRQAPGKEREFVAAISWSGGTTYYADSVKGRFTISRDNSKNTVYLQMNSLRPEDTAVYYCAARPRYYYYSLYSYDYWGQGTLVTVSS
With B22, the OD 450 nm in assay [1] amounted to 2.48 OD 450 nm.

B23: C0101PMP112A03 (VHH, not shown: large carriers)
VHH: EVQLVESGGGLVQPGGSLRLSCAASGSIFSNRFMYWYRQAPGKQRELVASITLSGSTNYADSVKGRFTISRDNAKNTVYLQMNSLKPEDTAVYYCNTFLQNSFYWGQGTQVTVSS
B23: the OD 450 nm in assay [1] stood at 2.36 OD 450 nm.

B24: C0101PMP113A01 (VHH, not shown: large carriers)
VHH: EVQLVESGGGLVQPGGSLRLSCSASGFTFSGSWMFWVRQAPGKDYEWVASINSSGGRTYYDDSVKGRFTISRDSAKNTLYLEMNNLKPEDTALYFCARSPRVGSWGQGTQVTVSS
Take B24: the OD 450 nm in assay [1] amounted to 2.57 OD 450 nm.

B25: C0101PMP604G01 (VHH, not shown: large carriers)
VHH: DVQLVESGGGLVQPGGSLRLSCAASGRTFSSYTMGWFRQAPGKEREFVAAISWSGRTTYYADSVKGRFTISRDNSKNTVYLQMNSLRPEDTAVYYCAAYRRVRYTNLEVWDYWGQGTLVTVSS
As for B25, the OD 450 nm in assay [1] came to 1.25 OD 450 nm.

B26: C0101PMP112A01 (VHH, not shown: large carriers)
VHH: EVQLVESGGGLVQTGGSLRLSCVASGRAFSNYIMGWFRQAPGKERDFVAAINWNGVTTHYTDSVKGRFTISRDNAKSTSYLQMDSLKPDDTAVYFCAARGTVYSRTYGVSEEGYMYWGQGTQVTVSS
For the molecule B26, in assay [1], the OD 450 nm came to 2.5 OD 450 nm.
